No end group written: not given here. *: point of attachment. BODIPYFLEthylmaleimide = Cc1cc(C)n2c1C=C1C=CC(CCC(=O)NCCN3C(=O)CC(*)C3=O)=[N+]1[B-]2(F)F

Test [1] concerns the target Bodipy-FL Mps1(137–171) (S. cerevisiae). Nature of the test: fluorescence polarisation; direct titration: 2-fold serial dilutions of Ndc80c^dwarf (from 860 uM stock) added to 20 nM (final) Bodipy-FL peptide; 20 mM Hepes pH 7.2, 150 mM NaCl, 2 mM TCEP; 25 °C; triplicate. In general terms: In fluorescence polarisation assays a small probe gives low polarisation when free and higher when bound to something large.

Test [2] concerns Ndc80c^dwarf. The test can be described thus: Fluorescence polarization competition, reporter Bodipy-FL Mps1(137–171). The test is classed as binding, S. cerevisiae. The conditions noted are these: direct titration (Figure 3A) and competition with Bodipy-FL Mps1(137–171) (Figure 3B). From the text:
We measured by fluorescence polarization the affinity of Ndc80^dwarf, a shortened version of Ndc80c[51], for a peptide comprising Mps1 residues 137–171, plus a C-terminal cysteine for labeling. We labeled the peptide with the Bodipy fluorophore and determined fluorescence anisotropy as a function of Ndc80c^dwarf concentration (Figure 3A). We then used unlabeled wild-type and mutant peptides in a competition format, at a fixed Ndc80c^dwarf concentration (Figures 3B,C). The mutant peptides corresponded to mutations characterized in one of the accompanying papers. […] Mutating either the basic residues or the hydrophobic residues in the first part of the consensus motif or the conserved arginine at the end of the second part lowered affinity (raised the Ki) by roughly two logs; mutating both the final arginine and the hydrophobic residues eliminated any detectable competition.
Figure 3. Fluorescence polarization measurements of Ndc80c^dwarf binding peptides from the N-terminal extensions of Mps1 and Ipl1. (A) Polarization of fluorescence from 20 nM Bodipy-FL Mps1(137–171) (Mps1 residues 137–171 plus a C-terminal cysteine modified with Bodipy-FL -- see Methods) and Bodipy-FL Ipl1 (26–39;45–59) as a function of Ndc80c^dwarf concentration. (B) Competition binding experiment: unlabeled competitor peptides (see figure annotation) were added in twofold serial dilutions to Bodipy-FL Mps1(137–171) and Ndc80c^dwarf at final concentrations of 20 nM and 500 nM respectively. Loss of polarization indicates displacement of bound Bodipy-FL Mps1(137–171) by the competitor. (C) As in (B), with competitor Mps1(137–171) peptides containing mutations that reduce affinity for Ndc80c[40]. (D) Polarization of fluorescence from 20 nM Bodipy-FL Mps1(137–171) as a function of the concentration of Ndc80c^dwarf bearing mutations in Nuf2 that interfere with its Mps1 interaction in cells. (E) As in (B), but with 20 nM Bodipy-FL Ipl1 (26–39;45–59) as the fluorescent reporter and 27μM Ndc80c^dwarf. […] For the Ipl1 peptide, the second copy of the motif, not used for the fluorescence polarization experiments, is shown in the bottom line.
Mps1 (137–171), Ipl1 (26–39;45–59), and Dam1 (254–270;290–305) peptides with added C-terminal cysteines, were synthesized by the Tufts University Core Facility. […] Fluorescence polarization was measured at 25°C with an Envision plate reader (Perkin Elmer) equipped with a filter set optimized for fluorescence polarization of FITC, which has the same absorption and emission spectra as those of Bodipy FL. […] Fluorescence polarization was measured in triplicate. […] An equal volume of a buffer-matched solution containing 40 nM Bodipy-FL labelled peptide and 1 μM Ndc80c^dwarf was added to each of the dilutions, and fluorescence polarization was measured in triplicate. […]

The next test has as its target T1, Mps1 (Saccharomyces cerevisiae (strain ATCC …, UniProt P54199)).
T1 chain: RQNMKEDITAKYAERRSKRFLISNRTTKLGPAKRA
Nature of the test: FP direct, Bodipy peptide, Ndc80c dwarf.

For another test, the target named is T2, Ipl1 (Saccharomyces cerevisiae (strain ATCC …, UniProt P38991)).
T2 chain: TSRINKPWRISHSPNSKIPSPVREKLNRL
Nature of the test: FP direct, Bodipy peptide, Ndc80c dwarf.

For test [3], the target named is T3, Ndc80c^dwarf (S. cerevisiae, UniProt P40460 1-691; Q04477 1-213; P40014 1-221).
T3 chain 1: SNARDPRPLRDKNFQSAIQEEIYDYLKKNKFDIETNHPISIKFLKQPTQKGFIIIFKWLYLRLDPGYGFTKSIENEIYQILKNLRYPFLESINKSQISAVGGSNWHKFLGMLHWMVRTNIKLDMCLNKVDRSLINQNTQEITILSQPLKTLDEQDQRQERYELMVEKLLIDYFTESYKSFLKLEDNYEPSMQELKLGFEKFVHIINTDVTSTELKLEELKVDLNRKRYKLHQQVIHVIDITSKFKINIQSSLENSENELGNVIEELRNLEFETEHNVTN
T3 chain 2: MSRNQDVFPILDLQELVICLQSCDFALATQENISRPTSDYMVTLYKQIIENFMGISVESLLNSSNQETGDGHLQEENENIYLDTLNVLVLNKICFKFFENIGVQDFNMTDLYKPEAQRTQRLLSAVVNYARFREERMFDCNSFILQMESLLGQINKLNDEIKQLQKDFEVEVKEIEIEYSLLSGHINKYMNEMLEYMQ
T3 chain 3: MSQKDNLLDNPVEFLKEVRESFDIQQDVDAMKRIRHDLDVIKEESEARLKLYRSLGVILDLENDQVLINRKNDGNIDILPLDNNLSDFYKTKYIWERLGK
T3 chain 4: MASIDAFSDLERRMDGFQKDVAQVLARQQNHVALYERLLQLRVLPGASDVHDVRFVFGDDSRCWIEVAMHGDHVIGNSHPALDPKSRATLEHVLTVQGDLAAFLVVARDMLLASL
Nature of the test: FP.

A further test concerns the target T4, Bodipy-FL Mps1(137–171).
T4 chain: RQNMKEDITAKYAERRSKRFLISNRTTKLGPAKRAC
The test can be described thus: fluorescence polarization. The following applies: chain shown with the change; 20 nM Bodipy-FL Mps1(137–171); Ndc80c^dwarf mutant titrated.

The target of test [4] is T5, Ndc80c^dwarf, P40460;Q04477;P40014.
T5 chain 1: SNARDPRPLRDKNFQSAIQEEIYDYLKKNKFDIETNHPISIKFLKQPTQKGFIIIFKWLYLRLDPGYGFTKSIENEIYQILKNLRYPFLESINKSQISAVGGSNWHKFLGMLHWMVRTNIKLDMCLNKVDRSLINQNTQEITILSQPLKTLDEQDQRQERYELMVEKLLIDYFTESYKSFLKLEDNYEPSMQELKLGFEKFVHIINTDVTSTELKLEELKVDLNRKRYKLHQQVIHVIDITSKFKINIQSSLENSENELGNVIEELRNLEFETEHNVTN
T5 chain 2: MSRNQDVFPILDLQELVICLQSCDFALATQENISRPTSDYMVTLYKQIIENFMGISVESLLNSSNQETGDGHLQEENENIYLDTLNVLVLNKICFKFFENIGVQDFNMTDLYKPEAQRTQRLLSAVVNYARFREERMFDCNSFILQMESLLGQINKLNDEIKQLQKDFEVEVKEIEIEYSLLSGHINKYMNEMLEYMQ
T5 chain 3: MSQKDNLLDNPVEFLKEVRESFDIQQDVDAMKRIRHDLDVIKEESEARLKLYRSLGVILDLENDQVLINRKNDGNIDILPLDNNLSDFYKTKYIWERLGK
T5 chain 4: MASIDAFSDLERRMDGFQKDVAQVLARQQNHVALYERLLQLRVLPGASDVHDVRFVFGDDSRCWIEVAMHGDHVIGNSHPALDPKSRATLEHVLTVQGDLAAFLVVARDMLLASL
The test can be described thus: fluorescence polarization competition. The following applies: chain shown with the change; point at the highest competitor concentration (about 1e3 µM); 20 nM Bodipy-FL Mps1(137–171), 500 nM Ndc80c^dwarf; lower polarization = more displacement of the …; parent: est. 41; read off a plot.

The target in test [5] is T3, Ndc80c^dwarf. Nature of the test: fluorescence polarisation; competition: 2-fold serial dilutions of unlabeled peptide (2 mM stock) mixed with an equal volume giving 20 nM Bodipy-FL Mps1(137–171) and 500 nM Ndc80c^dwarf; 20 mM Tris pH 7.2, 100 mM NaCl, 2 mM TCEP; 25 °C; triplicate.

In the case of “Ndc80c^dwarf bearing the Nuf2 F8A P9A mutations (from UniProt P40460 1-691; Q04477 1-213; P40014 1-221) (complex)”, in test [1], the loss of affinity against wild-type Ndc80c^dwarf (logs) was 2 logs. Same read-out and setting: under “Ndc80c^dwarf bearing the Nuf2 N128A mutation (from UniProt P40460 1-691; Q04477 1-213; P40014 1-221) (complex)” stands 2 logs.

On to “TSRINKPWRISHSPNSKIPSPVREKLNRLC [Ipl1 (26–39;45–59)]”, for which the “relative affinity of peptides for Ndc80c^dwarf (comparison in words)” value in the test on Ndc80c^dwarf [2] is “bound more weakly than those from Dam1 and Mps1”.

For “RRKSILHTIRNSIASGARISLGSGAARVVNGPVTC [Dam1 (254–270;290–305)]”, the “relative affinity of peptides for Ndc80c^dwarf (comparison in words)” value with Ndc80c^dwarf [2] is reported as “nearly the same”.

B1: Ndc80-Nuf2 (protein)
chain 1: MSRNQDVFPILDLQELVICLQSCDFALATQENISRPTSDYMVTLYKQIIENFMGISVESLLNSSNQETGDGHLQEENENIYLDTLNVLVLNKICFKFFENIGVQDFNMTDLYKPEAQRTQRLLSAVVNYARFREERMFDCNSFILQMESLLGQ
chain 2: RDPRPLRDKNFQSAIQEEIYDYLKKNKFDIETNHPISIKFLKQPTQKGFIIIFKWLYLRLDPGYGFTKSIENEIYQILKNLRYPFLESINKSQISAVGGSNWHKFLGMLHWMVRTNIKLDMCLNKVDRSLINQNTQEITILSQPLKTLDEQDQRQERYELMVEKLLIDYFTESYKSFLKLEDNYEPSMQELKLGFEKFVHIINTD
For orientation: Kd means a measure of binding affinity in units of concentration. As to B1, the results for the Kd with Mps1 and in the test with Ipl1 were 0.28 µM and 18.8 µM, respectively.

As for RQNMKEDITAKYAERRSKRFLISNRTTKLGPAKRAC(BODIPYFLEthylmaleimide) [Bodipy-FL Mps1(137–171)], the Kd with Ndc80c^dwarf [3] worked out at 0.28 µM.

B2: Ndc80c^dwarf, P40460;Q04477;P40014 Nuf2:N128A (protein)
chain 1: SNARDPRPLRDKNFQSAIQEEIYDYLKKNKFDIETNHPISIKFLKQPTQKGFIIIFKWLYLRLDPGYGFTKSIENEIYQILKNLRYPFLESINKSQISAVGGSNWHKFLGMLHWMVRTNIKLDMCLNKVDRSLINQNTQEITILSQPLKTLDEQDQRQERYELMVEKLLIDYFTESYKSFLKLEDNYEPSMQELKLGFEKFVHIINTDVTSTELKLEELKVDLNRKRYKLHQQVIHVIDITSKFKINIQSSLENSENELGNVIEELRNLEFETEHNVTN
chain 2: MSRNQDVFPILDLQELVICLQSCDFALATQENISRPTSDYMVTLYKQIIENFMGISVESLLNSSNQETGDGHLQEENENIYLDTLNVLVLNKICFKFFENIGVQDFNMTDLYKPEAQRTQRLLSAVVAYARFREERMFDCNSFILQMESLLGQINKLNDEIKQLQKDFEVEVKEIEIEYSLLSGHINKYMNEMLEYMQ
chain 3: MSQKDNLLDNPVEFLKEVRESFDIQQDVDAMKRIRHDLDVIKEESEARLKLYRSLGVILDLENDQVLINRKNDGNIDILPLDNNLSDFYKTKYIWERLGK
chain 4: MASIDAFSDLERRMDGFQKDVAQVLARQQNHVALYERLLQLRVLPGASDVHDVRFVFGDDSRCWIEVAMHGDHVIGNSHPALDPKSRATLEHVLTVQGDLAAFLVVARDMLLASL
As to B2, the Kd with Bodipy-FL Mps1(137–171) came out at 7.4 µM. That is a single-digit micromolar value.

B3: Ndc80c^dwarf, P40460;Q04477;P40014 Nuf2:F8A; Nuf2:P9A (protein)
chain 1: SNARDPRPLRDKNFQSAIQEEIYDYLKKNKFDIETNHPISIKFLKQPTQKGFIIIFKWLYLRLDPGYGFTKSIENEIYQILKNLRYPFLESINKSQISAVGGSNWHKFLGMLHWMVRTNIKLDMCLNKVDRSLINQNTQEITILSQPLKTLDEQDQRQERYELMVEKLLIDYFTESYKSFLKLEDNYEPSMQELKLGFEKFVHIINTDVTSTELKLEELKVDLNRKRYKLHQQVIHVIDITSKFKINIQSSLENSENELGNVIEELRNLEFETEHNVTN
chain 2: MSRNQDVAAILDLQELVICLQSCDFALATQENISRPTSDYMVTLYKQIIENFMGISVESLLNSSNQETGDGHLQEENENIYLDTLNVLVLNKICFKFFENIGVQDFNMTDLYKPEAQRTQRLLSAVVNYARFREERMFDCNSFILQMESLLGQINKLNDEIKQLQKDFEVEVKEIEIEYSLLSGHINKYMNEMLEYMQ
chain 3: MSQKDNLLDNPVEFLKEVRESFDIQQDVDAMKRIRHDLDVIKEESEARLKLYRSLGVILDLENDQVLINRKNDGNIDILPLDNNLSDFYKTKYIWERLGK
chain 4: MASIDAFSDLERRMDGFQKDVAQVLARQQNHVALYERLLQLRVLPGASDVHDVRFVFGDDSRCWIEVAMHGDHVIGNSHPALDPKSRATLEHVLTVQGDLAAFLVVARDMLLASL
Molecule B3 displayed a Kd with Bodipy-FL Mps1(137–171) of 12.5 µM.

As for RQNMKEDITAKYAERRSKRDAISNRTTKLGPAKSAC [Mps1 (137–171) peptide, unlabeled F156D; L157A; R170S], the response in test [4] was 76 mP. Molecule RQNMKEDITAKYAERRSKRFLISNRTTKLGPAKSAC [Mps1 R170S peptide (137–171)] returned a rise of Ki against the wild-type Mps1 peptide (logs) with Ndc80c^dwarf [5] of 2 logs. Same read-out and setting: under RQNMKEDITAKYAERRSKRDAISNRTTKLGPAKRAC [Mps1 F156D L157A peptide (137–171)] stands 2 logs; under RQNMKEDITAKYAEDDSKDFLISNRTTKLGPAKRAC [Mps1 R151D R152D R155D peptide (137–171)], 2 logs.

(Values after article PMC11847324, “A communication hub for phosphoregulation of kinetochore-microtubule attachment” (Current biology : CB, 2024).)
